Article PMC8825253, “pHBMT1, a BAHD-family monolignol acyltransferase, mediates lignin acylation in poplar” (Plant Physiology, 2021)

Assays:
Assay in all cases: LC-MS product quantification, Lineweaver-Burk
Format in all cases: biochemical, Populus trichocarpa
[1] = system: CC(C)(COP(=O)(O)OP(=O)(O)OC[C@H]1O[C@@H](n2cnc3c(N)ncnc32)[C@H](O)[C@@H]1OP(=O)(O)O)[C@@H](O)C(=O)NCCC(=O)NCCSC(=O)c1ccc(O)cc1; settings: saturating sinapyl alcohol, 50 mM sodium phosphate pH 6, 1 mM DTT, wheatgerm cell-free enzyme
From the text: (§1) LC-MS product quantification, Lineweaver-Burk on pHBMT1 (Potri.001G448000)

COc1cc(/C=C/CO)cc(OC)c1O = settings: saturating p-hydroxybenzoyl-CoA, 50 mM sodium phosphate pH 6, 1 mM DTT, wheatgerm cell-free enzyme
From the text: as §1

COc1cc(/C=C/CO)ccc1O = settings: saturating p-hydroxybenzoyl-CoA, 50 mM sodium phosphate pH 6, 1 mM DTT, wheatgerm cell-free enzyme
From the text: as §1

pHBMT1 (Potri.001G448000) (Populus trichocarpa)
Km [1]: 448 ± 21 µM | kcat [1]: 0.18 ± 0.03 s⁻¹ | kcat/Km [1]: 400 M⁻¹ s⁻¹ | Km (COc1cc(/C=C/CO)cc(OC)c1O): 300 ± 72 µM | kcat (COc1cc(/C=C/CO)cc(OC)c1O): 0.13 ± 0.01 s⁻¹ | kcat/Km (COc1cc(/C=C/CO)cc(OC)c1O): 490 M⁻¹ s⁻¹ | Km (COc1cc(/C=C/CO)ccc1O): 954 ± 411 µM | kcat (COc1cc(/C=C/CO)ccc1O): 0.1 ± 0.02 s⁻¹
